This note sets out measurements from patent publication US20170290876A1 (Novartis, published 2017).

Residue numbers refer to the chain shown, from its start. Numbers in names are those of the source.

The target of experiment [1] is T1, human VEGF (human, UniProt P15692 207-395, biotinylated (site not stated)).
T1 construct: Biotinylated human VEGF generated internally; also called hVEGF; hVEGF-biotin
T1 sequence: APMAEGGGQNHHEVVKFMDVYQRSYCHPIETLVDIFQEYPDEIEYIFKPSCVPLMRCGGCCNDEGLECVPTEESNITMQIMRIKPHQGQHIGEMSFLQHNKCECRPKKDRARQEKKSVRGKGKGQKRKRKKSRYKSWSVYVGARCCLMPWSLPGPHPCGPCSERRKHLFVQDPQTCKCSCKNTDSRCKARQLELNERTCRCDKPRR
The experiment can be described thus: Biacore SPR, Hu VEGF-biotin, 37 C.

Experiment [2] has as its target T1, human VEGF. The experiment can be described thus: Biacore SPR, hVEGF-biotin, 37 C.
The target of experiment [3] is T1, human VEGF. Put plainly: Biacore SPR, Hu VEGF-biotin, 25 C.
Experimental: (§1) In order to determine target kinetics, two different formats were utilized. […] The second format is an anti-fab capture method in which the fab protein samples are captured and the target proteins flowed over at various concentrations.
(§2) The sample compartment which includes the analytes, ligands, and regeneration buffer, is kept at 15° C. All other running conditions were carried out at either 25° C. or 37° C. in 1×HBSE+P buffer. […] Data was collected at 10 Hz and analyzed using the Biacore T200 Evaluation Software (GE Healthcare®). This program uses a global fitting analysis method for the determination of rate and affinity constants for each interaction.
For experiment [4], the target named is T2, human TNFα (human, UniProt P01375 77-233, biotinylated (site not stated)).
T2 construct: also called TNFα-biotin; Hu TNFα-biotin
T2 sequence (P01375 77-233 limits assumed): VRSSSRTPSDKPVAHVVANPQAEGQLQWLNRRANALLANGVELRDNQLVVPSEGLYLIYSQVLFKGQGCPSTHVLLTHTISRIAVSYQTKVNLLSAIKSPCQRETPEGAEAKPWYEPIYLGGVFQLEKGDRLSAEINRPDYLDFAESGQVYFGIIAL
Put plainly: Biacore SPR; affinity of NVS73T against untagged NVS73.

Experiment [5] has as its target T2, human TNFα. The experiment can be described thus: Biacore SPR, Hu TNFα-biotin, 37 C.
For experiment [6], the target named is T2, human TNFα. Put plainly: Biacore SPR, TNFα-biotin, 37 C.
Experimental: as §1, §2
Experiment [7] deals with T3, human Factor P (human, UniProt P27918 28-469, biotinylated (site not stated)).
T3 construct: also called Factor P-biotin; Hu factor P-biotin
T3 sequence (P27918 28-469 limits assumed): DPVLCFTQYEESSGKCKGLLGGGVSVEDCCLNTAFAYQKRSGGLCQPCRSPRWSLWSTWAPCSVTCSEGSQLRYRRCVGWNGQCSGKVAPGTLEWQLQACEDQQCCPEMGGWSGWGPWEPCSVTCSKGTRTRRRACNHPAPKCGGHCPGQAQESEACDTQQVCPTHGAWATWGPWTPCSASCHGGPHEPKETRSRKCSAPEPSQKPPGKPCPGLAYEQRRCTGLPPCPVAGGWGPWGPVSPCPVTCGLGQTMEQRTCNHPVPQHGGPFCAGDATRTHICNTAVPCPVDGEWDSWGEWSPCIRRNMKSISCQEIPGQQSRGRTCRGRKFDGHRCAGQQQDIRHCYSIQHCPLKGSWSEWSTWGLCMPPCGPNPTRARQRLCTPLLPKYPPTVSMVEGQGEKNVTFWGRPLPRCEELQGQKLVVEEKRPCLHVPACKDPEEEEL
The experiment can be described thus: Biacore SPR; affinity of NVS71T against untagged NVS71.

The target in experiment [8] is T3, human Factor P. Put plainly: Biacore SPR, Hu factor P-biotin, 37 C.
Experiment [9] concerns the target T3, human Factor P. The experiment can be described thus: Biacore SPR, Factor P-biotin, 25 C.
Experiment [10] deals with T4, IL-1β (human, UniProt P01584 117-269, biotinylated (site not stated)).
T4 construct: also called IL1β-biotin
Put plainly: Biacore SPR, IL1β-biotin, 25 C.

In experiment [11] the target is T1, human VEGF. The experiment can be described thus: Biacore SPR, hVEGF.
Experimental: (§3) At first, individual CDR residues were substituted and the affinity for hVEGF was measured by Biacore as described below. […] HC8T, and HC9T and the affinity of the resulting peptide-tagged Fab for both HA and hVEGF was measured by Biacore as described below (Table 17).
(§4) Affinity of optimized HA-binding peptide tags for HA and human VEGF were measured by Biacore. […] In order to determine target kinetics, two different formats were utilized. […] The second format is an anti-fab capture method in which the fab protein samples are captured and the target proteins flowed over at various concentrations.
as §2
The target in experiment [12] is T1, human VEGF. Put plainly: Biacore SPR, hVEGF (second row labelled Y32H).
Experimental: as §3, §4, §2
The target in experiment [13] is T1, human VEGF. The experiment can be described thus: Biacore SPR, hVEGF (second row labelled Y32H); the sign of the exponent is misprinted (kd/KD of the same row = 4.9e6); second row labelled Y32H (r159), not r156.
Experimental: as §3, §4, §2
For experiment [14], the target named is T1, human VEGF. The experiment can be described thus: Biacore SPR, hVEGF; the minus sign of the exponent is missing in print (kd/ka of the same row = 3.05e-12).
Experimental: as §3, §4, §2

B1: NVS82 (antibody, human IgG1, kappa, L234A L235A)
heavy: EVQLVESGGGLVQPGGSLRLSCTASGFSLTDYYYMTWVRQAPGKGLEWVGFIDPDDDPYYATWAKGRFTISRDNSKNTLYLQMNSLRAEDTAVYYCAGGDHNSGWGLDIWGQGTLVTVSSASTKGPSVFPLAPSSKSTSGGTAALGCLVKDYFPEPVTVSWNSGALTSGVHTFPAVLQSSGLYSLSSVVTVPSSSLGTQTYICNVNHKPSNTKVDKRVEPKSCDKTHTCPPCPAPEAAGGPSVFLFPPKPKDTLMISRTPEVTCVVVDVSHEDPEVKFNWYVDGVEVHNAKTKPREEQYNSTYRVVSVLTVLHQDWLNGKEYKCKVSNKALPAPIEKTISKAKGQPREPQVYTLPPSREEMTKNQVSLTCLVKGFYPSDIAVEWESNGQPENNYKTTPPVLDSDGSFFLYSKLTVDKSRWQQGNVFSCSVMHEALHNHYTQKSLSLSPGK
light: EIVMTQSPSTLSASVGDRVIITCQASEIIHSWLAWYQQKPGKAPKLLIYLASTLASGVPSRFSGSGSGAEFTLTISSLQPDDFATYYCQNVYLASTNGANFGQGTKLTVLKRTVAAPSVFIFPPSDEQLKSGTASVVCLLNNFYPREAKVQWKVDNALQSGNSQESVTEQDSKDSTYSLSSTLTLSKADYEKHKVYACEVTHQGLSSPVTKSFNRGEC
notes: also called IgG of NVS4
Regarding B1, in experiment [1], binding was put at a Kd of 7.64 pM, the off-rate (koff) was determined as 2.34e-05 s⁻¹ and the kon worked out at 3.06e+06 M⁻¹ s⁻¹.

B2: NVS1e (Fab)
heavy: EVQLVESGGGLVQPGGSLRLSCTASGFSLTDYYYMTWVRQAPGKGLEWVGFIDPDDDPYYATWAKGRFTISRDNSKNTLYLQMNSLRAEDTAVYYCAGGDHNSGWGLDIWGQGTLVTVSSASTKGPSVFPLAPSSKSTSGGTAALGCLVKDYFPEPVTVSWNSGALTSGVHTFPAVLQSSGLYSLSSVVTVPSSSLGTQTYICNVNHKPSNTKVDKRVEPKSCGS
light: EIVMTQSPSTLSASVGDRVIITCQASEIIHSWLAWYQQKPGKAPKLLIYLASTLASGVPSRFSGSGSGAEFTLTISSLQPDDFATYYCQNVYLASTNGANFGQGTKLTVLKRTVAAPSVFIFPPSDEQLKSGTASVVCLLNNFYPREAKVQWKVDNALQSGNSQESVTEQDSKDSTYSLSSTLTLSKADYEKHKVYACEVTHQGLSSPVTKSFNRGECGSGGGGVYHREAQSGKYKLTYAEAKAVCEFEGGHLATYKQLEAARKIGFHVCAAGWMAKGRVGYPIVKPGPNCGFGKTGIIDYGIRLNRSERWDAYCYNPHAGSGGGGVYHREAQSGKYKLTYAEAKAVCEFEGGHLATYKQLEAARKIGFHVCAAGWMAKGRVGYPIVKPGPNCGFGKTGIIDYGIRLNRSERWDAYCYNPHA
notes: NVS4 with two tandem HA tags at the light chain C-terminus
In experiment [2], B2 returned a Kd of 0.9 pM, a koff of 1.26e-05 s⁻¹ and an association rate constant (kon) of 1.4e+07 M⁻¹ s⁻¹.

B3: NVS83 (scFv)
scFv: MEIVMTQSPSTLSASVGDRVIITCQASEIIHSWLAWYQQKPGKAPKLLIYLASTLASGVPSRFSGSGSGAEFTLTISSLQPDDFATYYCQNVYLASTNGANFGQGTKLTVLGGGGGGSGGGGSGGGGSSGGGSEVQLVESGGGLVQPGGSLRLSCTASGFSLTDYYYMTWVRQAPGKGLEWVGFIDPDDDPYYATWAKGRFTISRDNSKNTLYLQMNSLRAEDTAVYYCAGGDHNSGWGLDIWGQGTLVTVSSHHHHHH
notes: also called scFv of NVS4
Turning to B3, in experiment [3], the dissociation constant Kd was 6.75 pM, the koff came out at 9.18e-06 s⁻¹ and the kon was 1.36e+06 M⁻¹ s⁻¹.

B4: NVS73T (Fab, V domains shown)
VH: EVQLVESGGGSVQPGGSLRLSCTASGFTISRSYWICWVRQAPGKGLEWVGCIYGDNDITPLYANWAKGRFTISRDTSKNTVYLQMNSLRAEDTATYYCARLGYADYAYDLWGQGTTVTVSS
VL: EIVMTQSPSTLSASVGDRVIITCQSSQSVYGNIWMAWYQQKPGRAPKLLIYQASKLASGVPSRFSGSGSGAEFTLTISSLQPDDFATYYCQGNFNTGDRYAFGQGTKLTVLK
notes: Anti-TNFα Fab with HA tag at heavy chain C-terminus
The molecule B4 registered a Fold improvement in experiment [4] of 35 fold. In experiment [5], this molecule registered a dissociation constant Kd of 0.742 pM, an off-rate (koff) of 2.47e-05 s⁻¹ and a kon of 3.33e+07 M⁻¹ s⁻¹. In experiment [6], this molecule came in with a Kd of 0.742 pM, a koff of 2.47e-05 s⁻¹ and an on-rate constant (kon) of 3.33e+07 M⁻¹ s⁻¹.

B5: NVS71T (Fab, V domains shown)
VH: EVQLVQSGAEVKKPGSSVKVSCKASGGTFSSYAISWVRQAPGQGLEWMGRIIPIFGTANYAQKFQGRVTITADESTSTAYMELSSLRSEDTAVYYCARHGGYSFDSWGQGTLVTVSS
VL: SYELTQPPSVSVAPGQTARISCSGDNLGSKYVDWYQQKPGQAPVLVIYSDNNRPSGIPERFSGSNSGNTATLTISGTQAEDEADYYCQTYTSGNNYLVFGGGTKLTVLG
notes: Anti-Factor P Fab with HA tag at heavy chain C-terminus
Regarding B5, the Fold improvement in experiment [7] amounted to 5.7 fold. Further, in experiment [8], the Kd came out at 95.5 pM, the koff was 0.000412 s⁻¹ and the kon stood at 4.31e+06 M⁻¹ s⁻¹. Further, in [9], the Kd turned out to be 95.5 pM, the dissociation rate constant (koff) is 0.000412 s⁻¹ and the kon is 4.31e+06 M⁻¹ s⁻¹.

B6: NVS75T (Fab, V domains shown)
VH: QVQLVESGGGVVQPGRSLRLSCAASGFTFSVYGMNWVRQAPGKGLEWVAIIWYDGDNQYYADSVKGRFTISRDNSKNTLYLQMNGLRAEDTAVYYCARDLRTGPFDYWGQGTLVTVSS
VL: EIVLTQSPDFQSVTPKEKVTITCRASQSIGSSLHWYQQKPDQSPKLLIKYASQSFSGVPSRFSGSGSGTDFTLTINSLEAEDAAAYYCHQSSSLPFTFGPGTKVDIKR
notes: Anti-IL-1β Fab with HA tag; also called NCS75T
With B6, in experiment [10], the dissociation constant (Kd) was 14 pM, the dissociation rate constant (koff) was found to be 6.9e-05 s⁻¹ and the on-rate constant (kon) is 4.95e+06 M⁻¹ s⁻¹.

B7: NVS4 heavy chain variant Y32H (Fab, V domains shown)
VH: EVQLVESGGGLVQPGGSLRLSCTASGFSLTDHYYMTWVRQAPGKGLEWVGFIDPDDDPYYATWAKGRFTISRDNSKNTLYLQMNSLRAEDTAVYYCAGGDHNSGWGLDIWGQGTLVTVSS
VL: EIVMTQSPSTLSASVGDRVIITCQASEIIHSWLAWYQQKPGKAPKLLIYLASTLASGVPSRFSGSGSGAEFTLTISSLQPDDFATYYCQNVYLASTNGANFGQGTKLTVLK
notes: CDR variant of NVS4; The label Y32H is printed in two rows (r156, r159) with different values
Take B7: the equilibrium dissociation constant (Kd) in experiment [11] came to 20.4 pM; in [12] it was 169 pM. Moreover, the dissociation rate constant (koff) in experiment [11] came out at 0.000112 s⁻¹; in experiment [12], 0.000829 s⁻¹. In addition, the values for the on-rate (kon) in experiment [11] and in experiment [13] were 5.49e+06 M⁻¹ s⁻¹ and 4.91e+06 M⁻¹ s⁻¹, respectively.

B8: NVS4 light chain variant E27Q (Fab, V domains shown)
VH: B7 VH with H32Y
VL: B7 VL with E27Q
notes: CDR variant of NVS4
Regarding B8, in [11], the off-rate constant (koff) is 1.64e-05 s⁻¹ and the kon was 5.37e+06 M⁻¹ s⁻¹. The molecule further registered a Kd in experiment [14] of 3.06 pM.
